Test results taken from paper PMC4407014 (Immunology and Cell Biology, 2014).

Biological target: Recombinant human CD4 (crystallisation construct) (Homo sapiens, UniProt P01730)
Assay: crystal structure

B1: Fab fragment of BT-061 (tregalizumab) (Fab, V domains shown)
VH: EEQLVESGGGLVKPGGSLRLSCAASGFSFSDCRMYWLRQAPGKGLEWIGVISVKSENYGANYAESVRGRFTISRDDSKNTVYLQMNSLKTEDTAVYYCSASYYRYDVGAWFAYWGQGTLVTVSS
VL: DIVMTQSPDSLAVSLGERATINCRASKSVSTSGYSYIYWYQQKPGQPPKLLIYLASILESGVPDRFSGSGSGTDFTLTISSLQAEDVAVYYCQHSRELPWTFGQGTKVEIK
binding result: binds
